According to article PMC3605642 (The Journal of Biological Chemistry, 2013):
Read-outs that look alike come from different tables or passages of the source. Blank lines part the entries; values can stand above or below the molecule they belong to.

B4: talin R3 rod domain (residues 787–911) (domain or fragment, mouse, UniProt P26039 787-911, looked up)
chain: AHATGAGPAGRYDQATDTILTVTENIFSSMGDAGEMVRQARILAQATSDLVNAIKADAEGESDLENSRKLLSAAKILADATAKMVEAAKGAAAHPDSEEQQQRLREAAEGLRMATNAAAQNAIKK
B5: talin R3 IVVI mutant (T809I/T833V/T867V/T901I) (domain or fragment, mouse, UniProt P26039 787-911, looked up)
chain: AHATGAGPAGRYDQATDTILTVIENIFSSMGDAGEMVRQARILAQAVSDLVNAIKADAEGESDLENSRKLLSAAKILADAVAKMVEAAKGAAAHPDSEEQQQRLREAAEGLRMAINAAAQNAIKK

Key:
[1] = target: vinculin domain 1 (Vd1; residues 1–258) (chicken) (UniProt P12003); experiment: SEC-MALS
[2] = target: B4; experiment: ITC
[3] = target: T1, vinculin domain 1 (Vd1; residues 1–258) (chicken, UniProt P12003 1-258); experiment: ITC
T1 sequence (looked up): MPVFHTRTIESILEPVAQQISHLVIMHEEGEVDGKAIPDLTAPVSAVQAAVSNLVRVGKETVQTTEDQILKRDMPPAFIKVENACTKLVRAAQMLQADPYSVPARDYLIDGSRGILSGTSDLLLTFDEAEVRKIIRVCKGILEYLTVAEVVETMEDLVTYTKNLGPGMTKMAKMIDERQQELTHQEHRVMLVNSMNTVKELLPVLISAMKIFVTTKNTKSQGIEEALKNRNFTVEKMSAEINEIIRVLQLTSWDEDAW

[4] = target: B4; experiment: NMR titration
[5] = target: B5; experiment: NMR titration
[6] = target: T1, vinculin domain 1 (Vd1; residues 1–258); experiment: SEC
[7] = target: T1, vinculin domain 1 (Vd1; residues 1–258); experiment: SEC; remark: listed apart in the source
[8] = target: talin R2R3 double domain fragment (mouse); experiment: SEC-MALS
Chain of talin R2R3 double domain fragment (mouse) (P26039 whole entry, the tested form may be a part): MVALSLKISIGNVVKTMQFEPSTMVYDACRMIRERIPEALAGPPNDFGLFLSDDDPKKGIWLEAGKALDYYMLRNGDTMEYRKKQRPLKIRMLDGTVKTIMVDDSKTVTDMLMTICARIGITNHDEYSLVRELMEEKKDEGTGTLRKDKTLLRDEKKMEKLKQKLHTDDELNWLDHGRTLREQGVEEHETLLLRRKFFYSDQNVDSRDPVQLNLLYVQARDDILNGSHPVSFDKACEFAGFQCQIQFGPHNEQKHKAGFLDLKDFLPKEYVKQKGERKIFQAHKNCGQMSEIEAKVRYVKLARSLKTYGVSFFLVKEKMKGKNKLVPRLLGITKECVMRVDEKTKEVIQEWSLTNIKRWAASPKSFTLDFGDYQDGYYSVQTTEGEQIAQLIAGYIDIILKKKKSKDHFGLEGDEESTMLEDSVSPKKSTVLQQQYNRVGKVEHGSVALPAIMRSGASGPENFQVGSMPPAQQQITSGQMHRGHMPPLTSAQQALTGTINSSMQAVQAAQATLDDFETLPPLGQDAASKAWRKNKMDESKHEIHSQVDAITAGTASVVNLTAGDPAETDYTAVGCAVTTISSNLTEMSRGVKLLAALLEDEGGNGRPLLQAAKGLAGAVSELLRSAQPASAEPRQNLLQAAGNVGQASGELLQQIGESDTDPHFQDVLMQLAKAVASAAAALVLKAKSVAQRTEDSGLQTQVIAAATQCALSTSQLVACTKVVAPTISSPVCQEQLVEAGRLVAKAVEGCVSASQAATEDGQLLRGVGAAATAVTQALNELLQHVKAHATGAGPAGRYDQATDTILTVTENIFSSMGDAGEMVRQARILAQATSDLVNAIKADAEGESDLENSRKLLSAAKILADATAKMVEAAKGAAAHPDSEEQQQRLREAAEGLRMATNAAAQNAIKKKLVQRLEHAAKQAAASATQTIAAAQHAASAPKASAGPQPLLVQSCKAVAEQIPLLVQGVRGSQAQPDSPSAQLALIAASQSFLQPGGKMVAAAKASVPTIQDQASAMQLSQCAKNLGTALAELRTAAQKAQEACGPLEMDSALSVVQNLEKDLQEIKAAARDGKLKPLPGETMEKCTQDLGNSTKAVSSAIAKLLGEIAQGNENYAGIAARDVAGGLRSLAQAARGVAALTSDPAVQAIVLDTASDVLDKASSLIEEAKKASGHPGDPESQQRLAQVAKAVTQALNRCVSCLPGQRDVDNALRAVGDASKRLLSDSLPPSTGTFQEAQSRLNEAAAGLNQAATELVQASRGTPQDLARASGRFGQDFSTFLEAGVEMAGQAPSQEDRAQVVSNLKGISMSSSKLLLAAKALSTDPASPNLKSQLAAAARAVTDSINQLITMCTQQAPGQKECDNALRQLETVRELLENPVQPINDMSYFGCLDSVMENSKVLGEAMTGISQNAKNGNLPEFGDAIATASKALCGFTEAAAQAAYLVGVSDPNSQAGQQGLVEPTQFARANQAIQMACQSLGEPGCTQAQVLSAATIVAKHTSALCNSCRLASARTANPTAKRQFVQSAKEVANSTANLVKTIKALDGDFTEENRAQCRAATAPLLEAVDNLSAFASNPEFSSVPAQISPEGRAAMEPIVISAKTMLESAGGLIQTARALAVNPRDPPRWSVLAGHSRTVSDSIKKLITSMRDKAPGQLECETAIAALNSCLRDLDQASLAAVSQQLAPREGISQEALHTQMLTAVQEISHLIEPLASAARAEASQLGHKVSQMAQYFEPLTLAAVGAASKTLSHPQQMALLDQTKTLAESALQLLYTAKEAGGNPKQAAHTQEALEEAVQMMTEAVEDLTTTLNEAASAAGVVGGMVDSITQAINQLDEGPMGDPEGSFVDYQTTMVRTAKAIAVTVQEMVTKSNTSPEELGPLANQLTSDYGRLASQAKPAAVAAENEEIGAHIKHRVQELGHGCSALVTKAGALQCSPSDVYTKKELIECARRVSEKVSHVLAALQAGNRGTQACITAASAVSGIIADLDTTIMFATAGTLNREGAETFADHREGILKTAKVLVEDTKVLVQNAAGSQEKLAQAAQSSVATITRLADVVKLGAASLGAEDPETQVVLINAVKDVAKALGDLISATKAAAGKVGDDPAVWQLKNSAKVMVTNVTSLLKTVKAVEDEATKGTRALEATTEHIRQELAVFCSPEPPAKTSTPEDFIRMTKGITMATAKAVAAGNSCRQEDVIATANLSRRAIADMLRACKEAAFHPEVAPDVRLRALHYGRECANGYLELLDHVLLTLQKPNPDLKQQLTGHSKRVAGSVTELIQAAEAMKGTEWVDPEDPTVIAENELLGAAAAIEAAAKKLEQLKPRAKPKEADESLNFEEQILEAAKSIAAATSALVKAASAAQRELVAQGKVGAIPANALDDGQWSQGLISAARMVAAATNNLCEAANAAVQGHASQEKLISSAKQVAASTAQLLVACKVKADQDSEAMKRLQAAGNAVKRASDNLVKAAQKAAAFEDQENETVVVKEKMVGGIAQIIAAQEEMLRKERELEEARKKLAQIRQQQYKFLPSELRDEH

[9] = target: talin R2R3 double domain fragment (mouse); experiment: ITC

stoichiometry N [1]: 4 Vd1 per R2R3
Molecule: talin R2R3 double domain fragment (domain or fragment)

Kd [2]: 36 µM
dH [3]: -1.5 kcal
B1: RIAM(1–32) (TBS1) (peptide, UniProt Q8R5A3 1-32, looked up)
peptide: MGESNEDIDQMFSTLLGEMDLLTQSLGVDTLP

Kd [3]: 800 nM
dH [3]: -5.9 kcal
B2: talin VBS (residues 820–844) in talin R3 (peptide, UniProt P26039 820-844, looked up)
peptide: GEMVRQARILAQATSDLVNAIKADA

binding result [4]: binds
binding result [5]: binds
B3: RIAM wild type peptide (6-30), TBS1 (peptide)
peptide: EDIDQMFSTLLGEMDLLTQSLGVDT

Molecule: B4
binding result [6]: binds

Molecule: B5
binding result [7]: binds

stoichiometry N [8]: 1
Kd [9]: 2000 nM
B6: RIAM(1–127) (TBS1-TBS2) (domain or fragment)
chain: MGESNEDIDQMFSTLLGEMDLLTQSLGVDTLPPPDPNPPREEFNYTVGFKDLNESLNALEDQDLDALMADLVADISEAEQRTIQAQKESSQNQDRFALLRASDGQGTASGGYGASAAAIDVSHHEEA
